Series [1] deals with T1, Atg9^core reconstituted in proteoliposomes (yeast, UniProt Q12142 281-779).
T1 construct: Atg9 core, yeast; Liposomes: 20 mol% cholesterol, 10 mol% POPE, 60 mol% POPC, 10 mol% POPS; protein:lipid 1:200; also called Atg9-PLs; Atg9 vesicles; source: reconstituted in liposomes by rapid dilution
T1 sequence (looked up): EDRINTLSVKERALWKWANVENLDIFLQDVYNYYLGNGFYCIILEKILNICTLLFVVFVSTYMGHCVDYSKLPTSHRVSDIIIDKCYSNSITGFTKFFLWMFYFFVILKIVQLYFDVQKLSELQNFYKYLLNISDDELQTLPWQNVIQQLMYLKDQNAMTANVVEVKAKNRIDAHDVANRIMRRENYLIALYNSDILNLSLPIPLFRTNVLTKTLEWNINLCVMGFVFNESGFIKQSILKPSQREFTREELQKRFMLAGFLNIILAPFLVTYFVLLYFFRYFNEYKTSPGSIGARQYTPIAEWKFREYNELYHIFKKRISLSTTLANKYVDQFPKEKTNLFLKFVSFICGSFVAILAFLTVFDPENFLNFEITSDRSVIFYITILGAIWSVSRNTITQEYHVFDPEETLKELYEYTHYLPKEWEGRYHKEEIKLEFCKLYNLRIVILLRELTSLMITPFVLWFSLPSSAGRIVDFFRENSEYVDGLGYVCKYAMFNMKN
Briefly: co-floatation with proteoliposomes; Atg9-PLs mixed with one interaction partner in a Nycodenz step gradient, ultracentrifugation, floated fraction on SDS-PAGE; SUVs lacking Atg9^core as control. The conditions noted are these: both partners purified.

Series [2] concerns the molecule itself. The series can be described thus: AUC; sedimentation velocity of purified Atg11-His6, analysed with SEDFIT; also at 1.63 mg/ml and 0.15 mg/ml.

Data on 1 molecule can be found in article PMC6687201, “Atg11 tethers Atg9 vesicles to initiate selective autophagy” (PLoS Biology, 2019).

B1: recombinant purified Atg11 (Atg11-His6) (natural protein, yeast)
chain: GPMADADEYSTAPTQQEITPLQTTATIINAISGECITTNVDFFVSLDKFKQFIARKWKIPPDQLLILLPYGNKLKPSMFKELLINRSFTLNDFYVYDRRLFSLVSKPTPTNLLTSKDSNPMNSPNSNDLTETLEYLIKNSHISQYQGSDTIMIKPMPSPLEDADVDLSRLNYHSVTSLLTTNLGWLSALEIDVHYFKSLIPDIIAHIKRIFDGLTVCSQYLKLYCFDVESLYNSNVQFLNQLVDNGMTSKWEKCFNDTLSKLTALEGDSLQKFINIESLLENEKSVKILNHSINGKLNKIKREIDENASFRDIITVNIDRLRQMFTPNESKFELEDQMAESFEVLVSEMRTRSRNVLDKEEEEFNSQEFLKSMNVMLEKDKKESVKTLFTISQALYSQIGELIDLKKSLQKHAVAILGNIAFTQMEILGIKRLLLNECNKDLELYKKYEVEFAQVEDLPLIYGLYLIEKYRRLSWFQQILSFISNFNQDLELFKQNELRTRNKWVKNFGSIATVFCEDLLSSSDFKRLNEYHSHTSPPNEDEEDENENSIANYRQDLVKVSQAIDNYMTQIKETDVSEPIIDLLSKTLFETKRFHIIYSNFKNNNNNSSNGNSISPEGSIALKSDDVVKGYKTRIKKLESLLHEFQYSDIGHWPQGVLNTHLKPFRGSATSINKKKFLGASVLLEPANISEVNIDSVSQANNHQIQELESNVDDLLHQLQLLKEENNRKSMQISEMGKKISDLEVEKTAYRETLTNLNQELARLTNEEQSHRTEIFTLNASFKKQLNDIISQDNEKIEKLTGDYDDVSKSRERLQMDLDESNKKHEQEVNLLKADIERLGKQIVTSEKSYAETNSSSMEKGEKFETIPLAEDPGRENQISAYTQTLQDRIFDIISTNIFILENIGLLLTFDNNNNIQIRRVKGLKKGTAQSNILDESTQMLDAHDNSLIKSPVFQKLKDEYELIKSVANGSEKDTQQSIFLGNITQLYDNKLYEVAVIRRFKDIETLAKKLTKENKIKRTLLERFQREKVTLRNFQIGDLALFLPTRENVNSVGSMSSSTSSLSSSFSSVDLSTPPPLDAMSIQSSPSVIHSNVINQASISGRDKNKLMRPWAAFTAFEESTRYFLKDEKGLTKGKEWFVGRIVTLEHFVADSPSNNPFRLPKGSVWFQVTAVVVSYQGV
modifications: Atto565 label in the GUV experiments
notes: N-terminal residual glycine-proline from PreScission protease digestion; Atg11, yeast; expressed from pCoofy37-Atg11; measured molecular weight 136 kDa; also called His-tagged Atg11; Atg11^Atto565; source: E. coli BL21 (DE3), coexpressed with chaperones from pG-KJE8, purified (Ni-NTA, PreScission digestion, gel filtration); not shown: His6, C-terminal, kept
Take B1: the stoichiometry N – broadly, a count of units in the complex or per binding partner – in series [1] turned out to be 1; in series [2], 2.
